Data: IntAct's records for PubMed 11248247

B1: Twist-related protein 1 (Homo sapiens), Q15672 (parent)
chain: MMQDVSSSPVSPADDSLSNSEEEPDRQQPPSGKRGGRKRRSSRRSAGGGAGPGGAAGGGVGGGDEPGSPAQGKRGKKSAGCGGGGGAGGGGGSSSGGGSPQSYEELQTQRVMANVRERQRTQSLNEAFAALRKIIPTLPSDKLSKIQTLKLAARYIDFLYQVLQSDELDSKMASCSYVAHERLSYAFSVWRMEGAWSMSASH

Variants of: B1
Conditions: with TCF3, P15923-1
TCF3, P15923-1, sequence (P15923 whole entry): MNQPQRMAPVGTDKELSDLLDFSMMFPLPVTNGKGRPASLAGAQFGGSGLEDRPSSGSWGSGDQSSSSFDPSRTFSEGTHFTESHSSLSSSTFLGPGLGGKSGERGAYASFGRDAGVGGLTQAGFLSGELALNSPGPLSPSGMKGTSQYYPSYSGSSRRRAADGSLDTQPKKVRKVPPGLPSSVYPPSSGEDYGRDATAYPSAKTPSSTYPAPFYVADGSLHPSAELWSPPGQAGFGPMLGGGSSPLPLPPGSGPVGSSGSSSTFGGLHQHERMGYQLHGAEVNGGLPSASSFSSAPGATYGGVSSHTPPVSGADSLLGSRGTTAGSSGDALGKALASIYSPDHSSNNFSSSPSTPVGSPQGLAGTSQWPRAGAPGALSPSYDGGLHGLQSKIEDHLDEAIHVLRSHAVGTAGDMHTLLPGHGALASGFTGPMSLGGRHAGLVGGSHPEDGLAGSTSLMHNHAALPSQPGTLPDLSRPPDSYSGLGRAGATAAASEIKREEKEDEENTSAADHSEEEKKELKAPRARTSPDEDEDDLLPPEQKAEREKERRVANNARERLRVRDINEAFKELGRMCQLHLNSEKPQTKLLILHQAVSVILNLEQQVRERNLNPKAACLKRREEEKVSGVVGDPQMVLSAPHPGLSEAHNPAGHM

effect of a mutation on the interaction | Variant
decreasing interaction strength | MMQDVSSSPVSPADDSLSNSEEEPDRQQPPSGKRGGRKRRSSRRSAGGGAGPGGAAGGGVGGGDEPGSPAQGKRGKKSAGCGGGGGAGGGGGSSSGGGSPQSYEELQTQRVMANVRERQRTQSLNEAFAALRKIIPTLPSDKLSEIQTLKLAARYIDFLYQVLQSDELDSKMASCSYVAHERLSYAFSVWRMEGAWSMSASH [K145E]
with no effect | MMQDVSSSPVSPADDSLSNSEEEPDRQQPPSGKRGGRKRRSSRRSAGGGAGPGGAAGGGVGGGDEPGSPAQGKRGKKSAGCGGGGGAGGGGGSSSGGGSPQSYEELQTQRVMANVRERQRTQSLNEAFAALRKIIPTLPSDKLRKIQTLKLAARYIDFLYQVLQSDELDSKMASCSYVAHERLSYAFSVWRMEGAWSMSASH [S144R]
with no effect | MMQDVSSSPVSPADDSLSNSEEEPDRQQPPSGKRGGRKRRSSRRSAGGGAGPGGAAGGGVGGGDEPGSPAQGKRGKKSAGCGGGGGAGGGGGSSSGGGSPQSYEELQTQRVMANVRECQRTQSLNEAFAALRKIIPTLPSDKLSKIQTLKLAARYIDFLYQVLQSDELDSKMASCSYVAHERLSYAFSVWRMEGAWSMSASH [R118C]

Variants of: B1
Conditions: with TCF3, P15923-1
Remark: another data set of the same source

effect of a mutation on the interaction | Variant
with no effect | MMQDVSSSPVSPADDSLSNSEEEPDRQQPPSGKRGGRKRRSSRRSAGGGAGPGGAAGGGVGGGDEPGSPAQGKRGKKSAGCGGGGGAGGGGGSSSGGGSPQSYEELQTQRVMANVRERQRTQSLNEAFAALRKIIPTLPSDKLSEIQTLKLAARYIDFLYQVLQSDELDSKMASCSYVAHERLSYAFSVWRMEGAWSMSASH [K145E]
